The target of one series is ExbD (UniProt P0ABV2). The series can be described thus: cryo-EM structure; single particle cryo-EM of the co-expressed, purified full-length ExbB-ExbD complex in lipid nanodiscs (MSP1E3D1, E. coli polar lipid extract); Tris 25 mM pH7.4 NaCl 200 mM; C1 symmetry, 3.3 Å.
Series [1] concerns the molecule itself. The description is as above.

With “ExbD (from UniProt P0ABV2 1-141) (natural protein)”, the stoichiometry N with ExbD came to 2.

B1: ExbB (natural protein, UniProt P0ABU7 1-244, looked up)
chain: MGNNLMQTDLSVWGMYQHADIVVKCVMIGLILASVVTWAIFFSKSVEFFNQKRRLKREQQLLAEARSLNQANDIAADFGSKSLSLHLLNEAQNELELSEGSDDNEGIKERTSFRLERRVAAVGRQMGRGNGYLATIGAISPFVGLFGTVWGIMNSFIGIAQTQTTNLAVVAPGIAEALLATAIGLVAAIPAVVIYNVFARQIGGFKAMLGDVAAQVLLLQSRDLDLEASAAAHPVRVAQKLRAG
notes: ExbB, inner membrane subunit of the Ton complex, 244 residues, three TM helices; native exbB, no tag; also called native ExbB; ExbB pentamer; source: reconstituted in lipid nanodiscs (MSP1E3D1, E. coli polar lipid extract)
As to B1, the “stoichiometry N” value in series [1] worked out at 5.

These data come from paper PMC6778125, “Cryo-EM structure of the bacterial Ton motor subcomplex ExbB–ExbD provides information on structure and stoichiometry” (Communications Biology, 2019).
